Assay [1] deals with CCL7_HUMAN (Homo sapiens, UniProt P80098). The note with it: read-out: Kd, CCL7_HUMAN, previously described evasins; data obtained from publications [20-22,32]; cited from earlier work.
Assay [2] concerns the target CCL11_HUMAN (Homo sapiens, UniProt P51671). To be noted: read-out: Kd, CCL11_HUMAN, previously described evasins; data obtained from publications [20-22,32]; cited from earlier work.
Assay [3] has as its target T1, CCL19_HUMAN (Homo sapiens, UniProt Q99731).
T1 sequence (Q99731 22-98): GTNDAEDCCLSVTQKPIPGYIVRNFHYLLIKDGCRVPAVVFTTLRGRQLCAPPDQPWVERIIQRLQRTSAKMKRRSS
The note with it: read-out: Kd, CCL19_HUMAN, previously described evasins; data obtained from publications [20-22,32]; cited from earlier work.

The target in assay [4] is T2, CCL14_HUMAN (Homo sapiens, UniProt Q16627).
T2 sequence (Q16627 20-93): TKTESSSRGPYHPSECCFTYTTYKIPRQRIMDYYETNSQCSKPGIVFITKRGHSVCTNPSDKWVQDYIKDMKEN
The note with it: read-out: Kd, CCL14_HUMAN, previously described evasins; data obtained from publications [20-22,32]; cited from earlier work.

Assay [5] has as its system chemokines. To be noted: list of chemokines bound, from the literature [18,20-22]; cited from earlier work.
Assay [6] has as its target CCL20_HUMAN (Homo sapiens, UniProt P78556). As to the kind of experiment: Biolayer interferometry (BLI) binding. The method, boiled down: (§1)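 Ni-NTA biosensor loaded with His-tagged tick chemokine-binding protein; 300 nM chemokine cross-binding screen; hits repeated with chemokine dose series; Kd from fitted kinetic and equilibrium data.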
(In general: Biolayer interferometry detects binding as a change in optical thickness at a sensor tip.)

In assay [7] the target is T3, CCL5_HUMAN (Homo sapiens, UniProt P13501).
T3 sequence (P13501 24-91): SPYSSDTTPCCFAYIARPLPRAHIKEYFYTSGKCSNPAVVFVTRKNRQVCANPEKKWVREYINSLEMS
The experiment in a line: Biolayer interferometry (BLI) binding. The method, boiled down:
as §1

In assay [8] the target is T4, CCL4_HUMAN (Homo sapiens, UniProt P13236).
T4 sequence (P13236 24-92): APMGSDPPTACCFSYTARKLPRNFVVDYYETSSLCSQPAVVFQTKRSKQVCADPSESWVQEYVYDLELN
As to the kind of experiment: Biolayer interferometry (BLI) binding. The method, boiled down:
as §1

Assay [9] has as its target T5, CCL4L1_HUMAN (Homo sapiens, UniProt Q8NHW4).
T5 sequence (Q8NHW4 24-92): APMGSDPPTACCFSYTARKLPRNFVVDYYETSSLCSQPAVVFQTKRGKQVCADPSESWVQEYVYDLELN
The experiment in a line: Biolayer interferometry (BLI) binding. The method, boiled down: as §1

Assay [10] addresses T6, CCL23_HUMAN (Homo sapiens, UniProt P55773).
T6 sequence (P55773 22-120): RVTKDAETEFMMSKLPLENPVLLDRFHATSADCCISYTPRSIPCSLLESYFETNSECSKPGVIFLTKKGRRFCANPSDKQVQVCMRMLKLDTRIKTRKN
The experiment in a line: Biolayer interferometry (BLI) binding. The essentials: as §1

One may read the Kd as the free concentration of one partner at which half of the binding sites on the other are occupied at equilibrium, for simple one-to-one binding.

Chain of CCL11_HUMAN (P51671 24-97): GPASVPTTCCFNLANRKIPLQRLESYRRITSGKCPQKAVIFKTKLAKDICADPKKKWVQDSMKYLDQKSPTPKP
Chain of CCL7_HUMAN (P80098 24-99): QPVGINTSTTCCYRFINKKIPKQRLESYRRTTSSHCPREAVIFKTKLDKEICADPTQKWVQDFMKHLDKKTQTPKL
Chain of CCL20_HUMAN (P78556 27-96): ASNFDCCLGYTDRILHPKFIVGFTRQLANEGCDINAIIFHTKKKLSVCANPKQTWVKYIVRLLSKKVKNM

B1: EVASIN4: previously described tick CKBP evasin 4, from Rhipicephalus sanguineus (protein, listed as Rhipicephalus sanguineus)
chain: EVPQMTSSSAPDLEEEDDYTAYAPLTCYFTNSTLGLLAPPNCSVLCNSTTTWFNETSPNNASCLLTVDFLTQDAILQENQPYNCSVGHCDNGTCAGPPRHAQCW
Regarding B1, the Kd in [1] is 0.7 nM; in assay [2] it was 0.34 nM; in [3], 0.14 nM; in [4], 0.14 nM.

B2: P1243_AMBAM: tick CKBP, Amblyomma americanum; AAM-02 stated identical (protein, listed as Amblyomma americanum)
chain: RNHTEDNSTEYYDYEEARCACPARHLNNTNGTVLKLLGCHYFCNGTLCTAPDGYPCYNLTAQQVRTLTTYPNTSCAVGVCMKGTCVKNGTMEQCFKTP
As to B2, the “Previously described chemokine binding” value in assay [5] is “CCL11, CCL24, and CCL26, CCL2, and CCL7”. Further, the dissociation constant Kd is 8.34 nM in assay [6], 1.74 nM in assay [7], 15.3 nM in assay [8] and 35.4 nM in assay [9].

B3: P672_RHIPU: tick CKBP, Rhipicephalus pulchellus (protein, listed as Rhipicephalus pulchellus)
chain: VCEVSEQEGVGEDNATEDEDYEDFFKPVTCYFANSTVGPLRPPNCTVVCTNNTAWWNDTKSDGGHCYSEYRPEKRTHSREIYNCTIGVCGNGTCIANHTYADCW
As to B3, the dissociation constant (Kd) in [10] was found to be 10 nM.
